Reference: patent publication US20040220079A1

Target: M2pd (modified M2 containing amino acids from Ala-8p to Ala326) (human) (UniProt P56817)
Experiment: cell-based or functional assay

Chain of M2pd (modified M2 containing amino acids from Ala-8p to Ala326) (human) (P56817 22-501 limits assumed): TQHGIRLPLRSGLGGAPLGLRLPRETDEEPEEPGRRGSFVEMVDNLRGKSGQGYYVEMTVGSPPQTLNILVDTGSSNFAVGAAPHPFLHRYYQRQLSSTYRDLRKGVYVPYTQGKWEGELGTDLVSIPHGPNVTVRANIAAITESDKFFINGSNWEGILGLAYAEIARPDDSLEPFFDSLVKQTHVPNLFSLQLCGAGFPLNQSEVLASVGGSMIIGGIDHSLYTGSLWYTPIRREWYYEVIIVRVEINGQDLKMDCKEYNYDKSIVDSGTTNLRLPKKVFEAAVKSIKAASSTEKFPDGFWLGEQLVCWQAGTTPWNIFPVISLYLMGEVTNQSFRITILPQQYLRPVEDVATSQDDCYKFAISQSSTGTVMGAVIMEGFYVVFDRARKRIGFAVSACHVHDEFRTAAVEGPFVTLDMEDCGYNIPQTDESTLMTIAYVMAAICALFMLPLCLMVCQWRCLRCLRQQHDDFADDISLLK

IC50 of inhibition of enzyme activity: 300 µM
Substance: Pepstatin A (peptide)
